Assay [1] has as its target Full-length LutR (LutR-FL, amino-acid residues 2–240) (Bacillus subtilis). Kind of assay: SEC; analytical SEC, Superdex 200 10/300 GL, room temperature, 20 mM Tris-HCl pH 7.5, 250 mM NaCl, 0.02% beta-mercaptoethanol; protein 2 mg/ml (66.7 uM), DNA 50 uM, protein:DNA 2:1.5; with and without 50 mM L-lactate; dimer told for the DNA-bound protein. A general note: SEC sorts molecules by how far they enter the pores of the column.

Assay [2] deals with DNA-binding domain of LutR (LutR–DBD, residues 2–78) (Bacillus subtilis). Kind of assay: SEC; analytical SEC, Superdex 200 10/300 GL, room temperature, PBS pH 7.4; protein 3 mg/ml (33.2 uM as printed); alone and with DNA (protein:DNA 2:1).
The target in assay [3] is T1, LutR (LutR-FL, full-length).
T1 construct: full-length residues 2-240, N-terminal His6 and TEV site (pMCSG7-derived vector), His6-tagged protein purified and apparently tag kept; expressed in E. coli BL21(DE3)
Kind of assay: microscale thermophoresis (label-free). It counts as binding, Bacillus subtilis. The note with it: 8 μM LutR; 20 mM Tris-HCl pH 7.5, 250 mM NaCl, 0.02% β-mercaptoethanol; free protein without DNA; effector. In general terms: MST reads how a fluorescent partner responds to local heating, with and without ligand.

Regarding “Full-length LutR (LutR-FL, amino-acid residues 2–240) (natural protein)”, in assay [1], the stoichiometry N (in general, the number of molecules, sites or subunits per partner or assembly) worked out at 2.
In assay [2], “DNA-binding domain of LutR (LutR–DBD, residues 2–78) (domain or fragment)” had a stoichiometry N of 2.
Regarding `C[C@H](O)C(=O)O` [L-lactate], in assay [3], binding was characterised by a dissociation constant (Kd) of 2300 ± 5 µM.

These data come from paper PMC11734750, “Using environment-sensitive tetramethylated thiophene-BODIPY fluorophores in DNA probes for studying effector-induced conformational changes of protein–DNA complexes” (RSC Chemical Biology, 2025).
